Results: paper PMC4943160
Numbering of substitutions follows the chain as printed.

Key:
[1] = biological target: T1, rCosRWT (Campylobacter jejuni NCTC 11168) (UniProt Q0PBF4); assay: EMSA
T1 sequence: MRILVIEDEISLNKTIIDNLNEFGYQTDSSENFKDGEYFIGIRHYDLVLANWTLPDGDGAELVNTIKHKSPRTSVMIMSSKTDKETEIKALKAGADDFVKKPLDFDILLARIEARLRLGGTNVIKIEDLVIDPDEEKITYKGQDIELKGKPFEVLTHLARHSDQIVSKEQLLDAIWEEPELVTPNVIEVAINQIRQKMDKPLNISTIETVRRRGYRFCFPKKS

[2] = biological target: T2, rCosRC218S C218S (Campylobacter jejuni NCTC 11168) (UniProt Q0PBF4); assay: EMSA
T2 sequence: T1 sequence with C218S

Row | Sequence | binding [1] | binding [2]
1 | AATCCTTGCTTGCATTTTCGAAAGTTGCCTTAGCCATTAAAGCTTGTCCGTAAGCTGAATCAACACTAGCTTTAAATTTATCTTGTTCTATAATAAATAATGTTTGTCCTTTTTTTACCTTATCTCCAGCTTTAAAAAGTTTATTTACTATTACGCCGCTAACTTGAGGTT (double strand) [cmeA internal fragment] | no binding | 
2 | GCACAACACCTAAAGCTAAAATAGTATTTTTTTGAAATAATTTCATGGTTTTGCCTTGAAAAATTAAATTAAAAATTGTAATATTTATTACAGAAATTTTTGGCTAATTATATCTTAATTTTGGTTAATAAAATTATTTTTTAAGCTTTGGAGCTATTGATTCCATTTAG (double strand) [81-176 cmeABC promoter] |  | binds
3 | GCACAACACCTAAAGCTAAAATAGTATTTTTTTGAAATAATTTCATGGTTTTGCCTTGAAAAATTAAATTAAAAATTGTAATTTTTATTACAAAAATTTTTGGCTAATTATATCTTAATTTTGGTTAATAAAATTATTTTTTAAGCTTTGGAGCTATTGATTCCATTTAG (double strand) [11168 cmeABC promoter] | binds | 
